Results reported in PMC8770954 (Frontiers in Immunology, 2021).

Legend:
[1] = molecular target: T1, Env of HIV-1 IMC 1086.C on infected CEM.NKR_(CCR5) cells (HIV-1 subtype C 1086.C, UniProt C6G099, strain); experiment: flow cytometry on cells; conditions: one partner purified
T1 construct: also called HIV-1 1086; source: HIV-1 IMC-infected CEM.NKR_(CCR5) cells, on the cell surface

[2] = molecular target: T2, Env of HIV-1 IMC CH505 on infected CEM.NKR_(CCR5) cells (HIV-1 subtype C CH505 (703010505), strain); experiment: flow cytometry on cells; conditions: one partner purified
T2 construct: source: HIV-1 IMC-infected CEM.NKR_(CCR5) cells, on the cell surface

[3] = molecular target: T3, Env of HIV-1 IMC SF162 on infected CEM.NKR_(CCR5) cells (HIV-1 subtype B SF162, UniProt P19550, strain); experiment: flow cytometry on cells; conditions: one partner purified
T3 construct: source: HIV-1 IMC-infected CEM.NKR_(CCR5) cells, on the cell surface

[4] = molecular target: T4, Env of SHIV SF162.P3 on infected A66 cells (SHIV SF162.P3 Env (stand-in: parental …, UniProt P19550, strain)); experiment: flow cytometry on cells; conditions: one partner purified
T4 construct: source: SHIV-infected A66 cells, on the cell surface

[5] = molecular target: T5, monomeric full length single chain (FLSC), a covalent dimer of gp120BaL and CD4 (HIV-1 subtype B BaL (gp120); Homo …, UniProt Q6TAP7;P01730); experiment: SPR; Biacore 3000; IgG immobilized on a protein A chip, antigen flowed over (FLSC 6.25-200 nM; gp41 peptide 6.4-25.6 μM; V2 peptide 12.5-50 μM); 10 mM HEPES pH 7.5, 150 mM NaCl, 0.05% Tween 20, 25 °C; 1:1 Langmuir model; conditions: both partners purified
T5 construct: gp120 of HIV-1 BaL; CD4, domain 1 and 2

[6] = molecular target: RM JR4 IgG1 (rhesus macaque mAb, C1C2 Cluster A region) (rhesus macaque (Macaca mulatta)); experiment: SPR; imaging SPR (IBIS MX96); IgG immobilised on a carboxymethyldextran sensor (CMD200M) by carbodiimide chemistry with a Continuous Flow Microspotter, printed at 300 and 150 nM; soluble receptor as analyte from 20 uM, 1:3 over 8 points; 5 min association and 5 min dissociation; equilibrium KD (Scrubber 2); conditions: both partners purified
[7] = molecular target: RhDH677.3 IgG1 (rhesusized variant of human DH677.3) (rhesus macaque (Macaca mulatta)); experiment: as above; conditions: both partners purified
[8] = molecular target: Rh7B2 IgG1 (rhesusized variant of human 7B2) (rhesus macaque (Macaca mulatta)); experiment: as above; conditions: both partners purified
[9] = molecular target: RhDH827 IgG1 (rhesusized variant of human DH827) (rhesus macaque (Macaca mulatta)); experiment: as above; conditions: both partners purified
[10] = molecular target: synthetic gp41 peptide (residues 596-606) with C-terminal amidation (HIV-1 subtype B BaL, UniProt Q6TAP7)

RM JR4 IgG1 (rhesus macaque mAb, C1C2 Cluster A region) (rhesus macaque (Macaca mulatta)), sequence (heavy, as listed by the source, chain 1 of 2): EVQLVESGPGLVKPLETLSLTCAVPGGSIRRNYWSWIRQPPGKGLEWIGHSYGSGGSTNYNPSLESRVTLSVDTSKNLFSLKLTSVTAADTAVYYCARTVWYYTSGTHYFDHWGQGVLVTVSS
RM JR4 IgG1 (rhesus macaque mAb, C1C2 Cluster A region) (rhesus macaque (Macaca mulatta)), sequence (light, as listed by the source, chain 2 of 2): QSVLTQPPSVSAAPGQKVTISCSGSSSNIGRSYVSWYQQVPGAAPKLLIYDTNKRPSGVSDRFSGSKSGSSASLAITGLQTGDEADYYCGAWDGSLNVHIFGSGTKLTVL

B1: DH827 (human IgG1) (antibody, V domains shown)
VH: EVQLVESGGGVVQPGRSLRLSCAASGFTFSNCAMHWVRQAPGKGLEWVAVISYHGSNKYYADYVKGRFTISRDNSKSTVYLQMNSPRAEDTAVYYCAKEGGAPSGWALDYWGQGTLVTVSS
VL: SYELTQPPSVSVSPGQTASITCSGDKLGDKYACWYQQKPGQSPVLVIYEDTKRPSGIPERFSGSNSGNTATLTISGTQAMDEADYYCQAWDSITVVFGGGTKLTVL
notes: also called human DH827
**Q.** What does the source list for B1?
**A.** binding result [1]: binds; binding result [2]: binds; binding result [3]: binds

B2: RhDH677.3 IgG1 (antibody, V domains shown)
VH: QVQLVQSGAEVKKPGASVKLSCKASGYTFTSYDINWVRQAPGQGLEWMGWMNPKTGNTGYAQKFQGRVTMTRDTSTSTAYMELSSLRSEDTAVYYCATYRIIAAVGYRYFQYWGQGALVTVSS
VL: AIQMTQSPSSLSASVGDKVTITCRASQGFGNYLAWYQQKPGKVPKLLIYAATTLQSEVPSRFSGSGSGTDFTLTISSLQPEDVATYYCQKYNSAPFTFGQGTRLEIK
notes: also called rhesusized DH677.3
**Q.** Does B2 bind [4]?
**A.** Result: binds

**Q.** Does B2 bind [2]?
**A.** Result: binds

**Q.** Does B2 bind [3]?
**A.** Result: binds

**Q.** What about the “fold change of KD against human DH677.3” value [5] of the same binder?
**A.** The value was roughly 8 fold.

B3: RhDH827 IgG1 (antibody, V domains shown)
VH: EVQLVESGGGLVQPGGSLRLSCAASGFTFSNCAMHWVRQAPGKGLEWVAVISYHGSNKYYADYVKGRFTISRDNSKNMLYLQMNNLKLEDTAVYYCAREGGAPSGWALDYWGQGVLVTVSS
VL: SYELTQSPSVSVSPGQPASITCSGDKLGDKYACWYQQKPGQVPVLVIYEDTKRPSGIPERFSGSNSGNTATLTISGVEAGDEADYYCQAWDSITHVVFGGGTRLTVL
notes: also called rhesusized DH827
**Q.** Which results are given for B3?
**A.** binding result [4]: binds; binding result [1]: binds; binding result [2]: binds; binding result [3]: binds

B4: Rh7B2 IgG1 (antibody, V domains shown)
VH: EVQLVESGGGLVQPGGSLRLSCAASGFTFTEYYMSWVRQAPGKGLEWVSYISKNGEYSYYADSVKGRFTISRDNAKNSLSLQMSSLRAEDTAVYYCTRADGLTYFSELLQYIFDLWGQGVLVTVSS
VL: DIVMTQSPDSLAVSLGERVTINCKSSQTLLYSSNNRHSIAWYQQKPGQAPKLLIYWASMRLSGVPNRFSGSGSGTDFTLTISGLQAEDVAVYYCHQYSSHPPTFGQGTKVEIK
notes: also called rhesusized 7B2
**Q.** Does B4 bind [4]?
**A.** Result: binds

**Q.** Does B4 bind [1]?
**A.** Result: binds

**Q.** Does B4 bind [2]?
**A.** Result: binds

**Q.** Does B4 bind [3]?
**A.** Result: binds

B5: rhesus macaque FcγRIIIa-1 (I158) (receptor)
chain: EDLPKAVVFLEPQWYRVLEKDSVTLKCQGAYSPEDNSTRWFHNESLISSQTSSYFIAAARVNNSGEYRCQTSLSTLSDPVQLEVHIGWLLLQAPRWVFKEEESIHLRCHSWKNTLLHKVTYLQNGKGRKYFHQNSDFYIPKATLKDSGSYFCRGLIGSKNVSSETVNITITQDLAVSSISSFFPPG
**Q.** Which results are given for B5?
**A.** Kd [6]: 1100 nM; Kd [7]: 1100 nM; Kd [8]: 1000 nM; Kd [9]: 1300 nM

B6: rhesus macaque FcγRIIIa-3 (V158) (receptor)
chain: EDLPKAVVFLEPQWYRVLEKDSVTLKCQGAYSPEDNSTRWFHNESLISSQTSSYFIAAARVNNSGEYRCQTSLSTLSDPVQLEVHIGWLLLQAPRWVFKEEESIHLRCHSWKNTLLHKVTYLQNGKGRKYFHQNSDFYIPKATLKDSGSYFCRGLVGSKNVSSETVNITITQDLAVSSISSFFPPG
modifications: N-glycosylated soluble ectodomain; limits from the UniProt extracellular domain. Mature 158 = precursor 176 (offset 18). Only V158 (against I158 in variant 1) is printed; other allelic differences of
**Q.** For B6, which Kd [6] is on record?
**A.** The Kd was 1600 nM.

**Q.** And the Kd [7]?
**A.** The Kd was 1500 nM.

**Q.** What about the Kd [8] of the same binder?
**A.** Its Kd is 1600 nM.

**Q.** What about the Kd [9] of the same binder?
**A.** The Kd was 1900 nM.

B7: human FcγRIIa (R131) (receptor)
chain: QAAAPPKAVLKLEPPWINVLQEDSVTLTCQGARSPESDSIQWFHNGNLIPTHTQPSYRFKANNNDSGEYTCQTGQTSLSDPVHLTVLSEWLVLQTPHLEFQEGETIMLRCHSWKDKPLVKVTFFQNGKSQKFSRLDPTFSIPQANHSHSGDYHCTGNIGYTLFSSKPVTITVQVPSMGSSSPMG
**Q.** With B7 as the binder, how does the Kd [6] read?
**A.** Its Kd is 2000 nM.

**Q.** What about the Kd [7] of the same binder?
**A.** The Kd was 4600 nM.

**Q.** What about the Kd [8] of the same binder?
**A.** Its Kd is 2900 nM.

**Q.** And the Kd [9]?
**A.** The Kd was 4600 nM.

B8: 7B2 (antibody, V domains shown)
VH: QVQLVQSGGGVFKPGGSLRLSCEASGFTFTEYYMTWVRQAPGKGLEWLAYISKNGEYSKYSPSSNGRFTISRDNAKNSVFLQLDRLSADDTAVYYCARADGLTYFSELLQYIFDLWGQGARVTVSS
VL: ETTLTQSPDSLAVSPGERATIHCKSSQTLLYSSNNRHSIAWYQQRPGQPPKLLLYWASMRLSGVPDRFSGSGSGTDFTLTINNLQAEDVAIYYCHQYSSHPPTFGHGTRVELR
**Q.** Does B8 bind [10]?
**A.** Result: binds
